Residue numbers refer to the chain shown, from its start.
B1: anti-Gal3 variant antibody E07-G2 (antibody, V domains shown)
VH: EVQLVESGGGLVKPGGSLRLSCAASGFTFSNYNMNWVRQAPGKGLEWVSNIYGSSRYIYYADSVKGRFTISRDNAKNSLYLQMNSLRAEDTAVYYCVRSYYGGMDVWGRGTLVTVSS
VL: QSALTQPRSVSGSPGQSVTISCTGTSSDVGGYYSVSWYQQHPGKAPKLMIYYDSNRPSGVPDRFSGSKSGNTASLTISGLQAEDEADYYCSSYTGYSTRVFGQGTKLEIK
notes: Variant of E07 with framework mutations to germline; captured by anti-human Fc in SPR
B2: anti-Gal3 antibody B12 (antibody, V domains shown)
VH: EVQLVESGGSLVKPGGSLRLSCAASGFTFSNDDMNWVRQAPGKGLEWISSIDGSSRSIYYADFVKGRFTISRDNAKNSLYLQMNSLRAEDTAVYYCVRSSGYSGGGMDVWGRGTLVTVSS
VL: QSVLTQPASVSGSPGQSITISCAGTSSDVGGSYNVAWYQQHPGKAPKLMIYSDSYRPSGVSNRFSGSKSGNTASLTISGLQAEDEADYYCSSYTSNSARVFGGGTKLEIK
B3: anti-Gal3 variant antibody D06-G2 (antibody, V domains shown)
VH: B1 VH with N50S, Y100G
VL: B1 VL with R8A, V18I, Y33N, S34G, N55Y, P61S, D62N, Y93G, G95D
notes: Variant of D06 with framework mutations to germline; captured by anti-human Fc in SPR
B4: anti-Gal3 variant antibody E07-G1 (antibody, V domains shown)
VH: B1 VH with V48I
VL: B1 VL
notes: as for B1
B5: anti-Gal3 variant antibody D11-G1 (antibody, V domains shown)
VH: B1 VH with V48I, N50S, Y100S
VL: B2 VL with V3A, A23T, S52Y, S95G, N96Y, A98T
notes: Variant of D11 with framework mutations to germline; captured by anti-human Fc in SPR
B6: anti-Gal3 variant antibody D11-G2 (antibody, V domains shown)
VH: B1 VH with N50S, Y100S
VL: B2 VL with V3A, A23T, S52Y, S95G, N96Y, A98T
notes: as for B5
B7: anti-Gal3 antibody E12 (antibody, V domains shown)
VH: B1 VH with G10S, N33A, V48I, N50S, Y57S, S63F, Y100N, Y101N, G102A
VL: B2 VL with S32Y, N34D, A36S, S52Y, N96Y, A98T
B8: anti-Gal3 variant antibody D06-G1 (antibody, V domains shown)
VH: B1 VH with V48I, N50S, Y100G
VL: B1 VL with R8A, V18I, Y33N, S34G, N55Y, P61S, D62N, Y93G, G95D
notes: as for B3
B9: anti-Gal3 scFv G03 (scFv, V domains shown, not shown: small tags and cut ends)
VH: B1 VH with G10S, N33A, V48I, N50S, S63F, Y101N
VL: B2 VL with S32Y, S52Y, Y93S, S95G, N96Y, A98T
notes: Periplasmic extract from E. coli; also called G03 (scFv)
B10: anti-Gal3 scFv E01 (scFv, V domains shown, not shown: small tags and cut ends)
VH: EVQLVESGGSLVKPGGSLRLSCAASGFTFSNNYMNWVRQAPGKGLEWISNINGASRNIAYADFVKGRFTISRDNAKNSLYLQMNSLRAEDTAVYYCVRSSDYDGGMDVWGRGTLVTVSS
VL: B2 VL with S32N, Y33S, N34Y, A36S, S52Y, Y93S, S95Y, N96G, A98T
notes: Periplasmic extract from E. coli; also called E01 (scFv)
B11: anti-Gal3 scFv H10 (scFv, V domains shown, not shown: small tags and cut ends)
VH: EVQLVESGGSLVKPGGSLRLSCAASGFTFSNYYMNWVRQAPGKGLEWISYINGASRDISYADFVKGRFTISRDNAKNSLYLQMNSLRAEDTAVYYCVRSSYGYSNYGSGMDVWGRGTLVTVSS
VL: B2 VL with S52N, S54A, Y55N, Y93N, S95A, N96D, A98T
notes: Periplasmic extract from E. coli; also called H10 (scFv)
B12: anti-Gal3 scFv B12 (scFv, V domains shown, not shown: small tags and cut ends)
VH: B2 VH
VL: B2 VL
notes: Periplasmic extract from E. coli; also called B12 (scFv)
B13: anti-Gal3 scFv D11 (scFv, V domains shown, not shown: small tags and cut ends)
VH: B1 VH with G10S, V48I, N50S, S63F, Y100S
VL: B2 VL with S52Y, S95G, N96Y, A98T
notes: Periplasmic extract from E. coli; also called D11 (scFv)
B14: anti-Gal3 scFv E02 (scFv, V domains shown, not shown: small tags and cut ends)
VH: EVQLVESGGSLVKPGGSLRLSCAASGFTFSNYAMNWVRQAPGKGLEWISSIYGSSRSISYADFVKGRFTISRDNAKNSLYLQMNSLRAEDTAVYYCVRSSYNYYYGNGMDVWGRGTLVTVSS
VL: B2 VL with S32Y, Y33G, N34G, A36S, S52Y, Y93S, N96Y, A98T
notes: Periplasmic extract from E. coli; also called E02 (scFv)
B15: anti-Gal3 scFv D06 (scFv, V domains shown, not shown: small tags and cut ends)
VH: B1 VH with G10S, V48I, N50S, S63F, Y100G
VL: B2 VL with S32Y, Y33N, N34G, A36S, S52Y, Y93G, S95D, N96Y, A98T
notes: Periplasmic extract from E. coli HB2151 (pHEN phagemid); also called D06 (scFv)
B16: anti-Gal3 scFv E12 (scFv, V domains shown, not shown: small tags and cut ends)
VH: B1 VH with G10S, N33A, V48I, N50S, Y57S, S63F, Y100N, Y101N, G102A
VL: B2 VL with S32Y, N34D, A36S, S52Y, N96Y, A98T
notes: Periplasmic extract from E. coli; also called E12 (scFv)
B17: anti-Gal3 scFv E07 (scFv, V domains shown, not shown: small tags and cut ends)
VH: B1 VH with G10S, V48I, S63F
VL: B1 VL with A3V, R8A, V18I, T23A, P61S, D62N, Q103G
notes: Periplasmic extract from E. coli; also called E07 (scFv)
B18: anti-Gal3 scFv H07 (scFv, V domains shown, not shown: small tags and cut ends)
VH: B1 VH with G10S, V48I, Y52D, S63F
VL: B2 VL with S32Y, S52Y, Y93S, S95G, N96Y, A98T
notes: Periplasmic extract from E. coli; also called H07 (scFv)

molecular target: T1, full length human Galectin-3 (human, UniProt P17931 2-250); experiment: SPR Biacore T-200, antibody captured by anti-human Fc, Gal3 in solution
T1 construct: Printed as 'full length'; recombinant, immobilized through a histidine tag; also called hu-Gal3-FL; Hu-Gal3-FL
Description: (§1) The CM5 sensor surface was first immobilized with an anti-human Fc mAb using a standard protocol. The entire sensor surface was first activated by injecting a 1:1 (v/v) mixture of 400 mM EDC and 100 mM NHS at a flow rate of 10 μL/minute for 7 minutes. Monoclonal anti-human Fc antibody (Millipore AP113), 25 μg/mL in Na acetate pH5, 360 s were flowed at 10 μL/minute to reach 10000 RU on both flow cells followed by the injection of 1 M ethanolamine, pH8.5 for 7 minutes at a flow rate of 10 μL/minute. During the entire immobilization procedure, HBS-P was used as the running buffer.
(§2) Antibody samples were prepared at 5 μg/ml and were injected for 30 seconds at 10 μL/minute. In general, 400 to 680 resonance units of antibodies were captured on the chip.

T1 sequence (P17931 2-250 limits assumed): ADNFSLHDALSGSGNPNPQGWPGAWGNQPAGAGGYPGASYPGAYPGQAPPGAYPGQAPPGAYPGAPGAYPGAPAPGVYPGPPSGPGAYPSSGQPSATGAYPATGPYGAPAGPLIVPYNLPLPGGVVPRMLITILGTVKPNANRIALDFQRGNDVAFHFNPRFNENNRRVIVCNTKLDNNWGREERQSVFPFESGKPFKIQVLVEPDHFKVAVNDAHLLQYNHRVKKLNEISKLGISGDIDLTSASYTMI

Row | Binder | Kd [nM]
1 | B1 | 15
2 | B2 | 8.8
3 | B3 | 6.8
4 | B4 | 12
5 | B5 | 15
6 | B6 | 18
7 | B7 | 6.64
8 | B8 | 9.6

molecular target: T2, full length mouse Galectin-3 (mouse, UniProt P16110 2-264); experiment: as above
T2 construct: Printed as 'full length'; recombinant, immobilized through a histidine tag; also called m-Gal3-FL; murine Gal3
Description: as §1, §2

T2 sequence (P16110 2-264 limits assumed): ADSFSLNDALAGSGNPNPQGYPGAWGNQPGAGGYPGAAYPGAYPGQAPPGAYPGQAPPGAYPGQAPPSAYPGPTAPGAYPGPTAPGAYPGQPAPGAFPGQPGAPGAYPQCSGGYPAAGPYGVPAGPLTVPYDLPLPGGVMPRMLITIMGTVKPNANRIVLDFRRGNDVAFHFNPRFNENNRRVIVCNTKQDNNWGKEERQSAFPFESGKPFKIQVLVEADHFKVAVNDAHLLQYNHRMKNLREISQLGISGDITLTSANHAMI

Row | Binder | Kd [nM]
9 | B2 | 3.47
10 | B7 | 7.7

molecular target: T3, human full-length Galectin-1 (human, UniProt P09382 2-135); experiment: ELISA on immobilised antigen (3 µg/mL), purified IgG at 15-20 µg/mL, anti-Fab.HRP, OD 450 nm
T3 construct: full-length; Histidine-tagged; also called Hu-Gall; Gall
Description: (§3) IgG specificity to Gal3 was tested by checking the absence of binding on human Gall and Gal7 by ELISA.
(§4) Hu-Gall and Hu-Gal7 were immobilized at 3 μg/mL. Purified IgGs were added into the wells (15-20 μg/mL final concentration) and detected with an anti-Fab.HRP antibody. Rabbit antibodies directed against Gall (Abcam ab25138 reference) and Gal7 (Abcam ab108623 reference) were used at 5 μg/mL as antigen-coating positive controls and detected with an anti-rabbit.HRP secondary antibody (7074S-Cell Signaling reference).

T3 sequence (P09382 2-135 limits assumed): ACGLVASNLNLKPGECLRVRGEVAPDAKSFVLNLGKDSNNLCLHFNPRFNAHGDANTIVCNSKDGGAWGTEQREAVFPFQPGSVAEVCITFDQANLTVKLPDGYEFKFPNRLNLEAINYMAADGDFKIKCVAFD

Row | Binder | binding result
11 | B2 | no binding (tested: 15-20 µg/mL)
12 | B7 | no binding (tested: 15-20 µg/mL)

molecular target: T4, human full-length Galectin-7 (human, UniProt P47929 1-136); experiment: as above
T4 construct: full-length; Histidine-tagged; also called Hu-Gal7; Gal7
Description: as §3, §4

T4 sequence (P47929 whole entry): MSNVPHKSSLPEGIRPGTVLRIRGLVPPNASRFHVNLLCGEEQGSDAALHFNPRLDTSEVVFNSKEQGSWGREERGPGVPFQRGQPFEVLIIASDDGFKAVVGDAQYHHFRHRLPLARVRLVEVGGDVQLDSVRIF

Row | Binder | binding result
13 | B2 | no binding (tested: 15-20 µg/mL)
14 | B7 | no binding (tested: 15-20 µg/mL)

molecular target: T3, human full-length Galectin-1; experiment: ELISA on His-tag-immobilised antigen (3 µg/mL), periplasmic extract with scFv, anti-scFvTag.HRP, OD 450 nm
Description: (§5) Hu-Gal3-FL, Hu-Gal3-CRD, m-Gal3-FL, Hu-Gall and Hu-Gal7 were immobilized at 3 μg/mL final concentration through their histidine tag on functionalized microplates following internal process. Periplasmic extracts containing scFvs were added into the wells and detected with an anti-scFvTag.HRP (horseradish peroxidase) antibody. Rabbit antibodies directed against Gal3 (ab53082-abcam reference), Gall (ab25138-abcam reference), and Gal7 (ab108623-abcam reference) were used at 5 μg/mL as antigen-coating positive controls and detected with an anti-rabbit.HRP secondary antibody (7074S-Cell Signaling reference).

Row | Binder | binding result
15 | B9 | no binding
16 | B10 | no binding
17 | B11 | no binding
18 | B12 | no binding
19 | B13 | no binding
20 | B14 | no binding
21 | B15 | no binding
22 | B16 | no binding
23 | B17 | no binding
24 | B18 | no binding

molecular target: T4, human full-length Galectin-7; experiment: as above
Description: as §5

Row | Binder | binding result
25 | B9 | no binding
26 | B10 | no binding
27 | B11 | no binding
28 | B12 | no binding
29 | B13 | no binding
30 | B14 | no binding
31 | B15 | no binding
32 | B16 | no binding
33 | B17 | no binding
34 | B18 | no binding
